This is an account of results in patent publication US8476407B2, “Metallopeptide catalysts” (William Marsh Rice University, priority 2009, dated 2013).

One data set relates to K3a,eRh2. Description: Covalent modification of E3gX peptides with diazo reagent 1 catalysed by K3a,eRh2. It counts as biochemical. Conditions: for krel, relative modification rate: initial rate of product formation at 1 hour, corrected for catalyst concentration; for modification of variable residue (in words): metallopeptide catalyst K3a,eRh2 and diazo reagent 1. As for the experimental part: Binding the dirhodium center at positions a and e ensures that the metal will be held proximal to the coil-coil interface, and the a, e spacing serves to stabilize the necessary helical structure.
Covalent modification of variable residue g was then examined.
Relative modification rates (krel) were based on conversion at 1 hour, which corrects for catalyst loading and assumes first-order catalysis.

The next data set in a line: Solubility on isolation. The class given is physicochemical. Conditions: isolation after metalation in aqueous buffer. On the procedure:
(§1) Purified Jun variant was metalated with Rh2(OAc)2(tfa)2 in aqueous buffer. […] In initial studies at 4° C., crude Jun(Rh2) directly from the metalation process could be used in modification reactions with activity identical to that of purified material, thus avoiding time-consuming and unnecessary material loss that accompanied isolation.

Another data set deals with T1, bZip domain of c-Fos (Homo sapiens, UniProt P01100, A167K/D174T/K188A/T181D).
T1 sequence (P01100 162-193 A167K/D174T/T181D/K188A limits assumed): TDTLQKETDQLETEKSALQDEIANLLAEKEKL
As to the kind of experiment: Covalent modification of c-Fos with diazo reagent 1 catalysed by metallopeptide. The class given is biochemical. Conditions: for c-Fos residue modified: MS/MS fragmentation analysis; for conversion of c-Fos: 45 h, metallopeptide and diazo 1 added in small portions. On the procedure: FIG. 5. MALDI-TOF MS spectra of c-Fos (SEQ ID NO: 15) modification catalyzed by Jun(Rh2) (A) (SEQ ID NO: 14) and Max(Rh2) (B)(SEQ ID NO: 16). Reactions were 100 μM in substrate at pH 6.5. Metallopeptide and diazo 1 were added portion-wise to final concentrations of 200 μM and 5 mM, respectively. Sequences illustrate the expected alignment of the coiled coils and the site of modification (B) In the inset table, the ratio in parentheses indicates the ratio of singly to doubly modified product.
Metallopeptide Jun(Rh2) was prepared based on an affinity-optimized c-Jun variant with glutamate residues in g and […] positions. The target was the bZip domain of c-Fos, an oncogene product that regulates transcription by forming a heterodimeric coiled coil with c-Jun.
as §1
Catalytic activity was also investigated for a second metallopeptide based on the leucine-zipper Max.
For Jun(Rh2), MALDI-TOF MS/MS analysis established that Gln19 (position e) was modified. […] In the case of Max(Rh2), the dominant fragmentation pathway was cleavage of the modifying group.

Data set [1] is described as follows: Circular dichroism (CD) helicity of peptides and dirhodium adducts. It counts as physicochemical. Conditions: for [θ]220, residual molar ellipticity: CD at 220 nm, water; for fH, helicity content: calculated from [θ]220, fH = ([θ]220 − [θ]c)/([θ]inf − [θ]c); for Rel. Hel %, relative helicity: calculated with [θ]inf = [θ]220 of EE4-Rh2(OAc)2; for fH (TFE), helicity content: calculated with [θ]inf = [θ]220 of EE4 in 100% TFE; for effect of dirhodium binding on helicity (in words): CD spectroscopy. On the procedure: Peptides were prepared having 18 amino acids and a propensity toward helicity due to an alanine-rich sequence (Table 1). A complete turn of an α-helix requires about three or four amino acids, so carboxylate side chains (Asp, Glu) were placed in an i, i+3 or an i, i+4 relationship.
The peptides reacted with cis-Rh2(OAc)2(TFA)2, producing adducts with bridging dirhodium centers for both i, i+3 and i, i+4 carboxylate spacing. Circular dichroism (CD) spectroscopy assessed the effect of dirhodium binding on helicity.

A further data set has as its target T2, Fos (Homo sapiens, UniProt P01100, A167K/D174T/K188A/T181D).
T2 sequence (P01100 162-193 A167K/D174T/T181D/K188A limits assumed): T1 sequence (P01100 162-193 A167K/D174T/T181D/K188A limits assumed)
Description: Temperature-dependent folding of Fos-metallopeptide coiled coil. The class given is physicochemical. Conditions: Fos-Max(Rh2) temperature-dependent folding. As for the experimental part: Amazingly, site-specific reactivity can be templated on molecular recognition in interactions with such low affinities that they are uncharacterizable by available methods. Because metallopeptide Jun(Rh2) has ≧100 μM affinity for Fos, reactions at 10 μM successful even though the desired Fos-Jun(Rh2) dimer is not the major species.

Setting [2] is: 50 mol % K3a,eRh2, 10 mM diazo 1 added in two portions, 50 μM substrate, pH 6.2.
[3] abbreviates: 20 mol % K3a,eRh2, 10 mM diazo 1 added in two portions, 50 μM substrate, pH 6.2.

Marks after values point to notes of the source that are not given here. Residues, ends and D or L forms follow the SMILES beside them. No end group written: not given here.

Take `N=C(N)NCCC[C@H](N)C(=O)O` [Arg]: the “% conv. at 24 h” value with K3a,eRh2 (setting [2]) was determined as 73%. In the data set with K3a,eRh2, the “krel, relative modification rate” value stood at 100.
In the case of `N[C@@H](CC(=O)O)C(=O)O` [Asp], the “% conv. at 24 h” value in the data set with K3a,eRh2 (setting [3]) is 53%. In the data set with K3a,eRh2, the “krel, relative modification rate” value stood at 100 and the “modification of variable residue (in words)” value (“modification … (in words)” below) is “modest conversion”.
`N[C@@H](CS)C(=O)O` [Cys]: the “% conv. at 24 h” value in the data set on K3a,eRh2 (10 mol % K3a,eRh2, 2.5 mM diazo 1, 50 μM substrate, pH 6.2, room temperature) was 78%. Moreover, in the data set with K3a,eRh2, the “krel, relative modification rate” value is given as 560.
Turning to `NC(=O)CC[C@H](N)C(=O)O` [Gln], the “% conv.” value with K3a,eRh2 (10 mol % K3a,eRh2, reaction time 6 hours, 2.5 mM diazo 1, 50 μM substrate, pH 6.2) is given as greater than 95%. The “krel, relative modification rate” value with K3a,eRh2 was found to be 260.
Regarding `N[C@@H](CCC(=O)O)C(=O)O` [Glu], the “% conv. at 24 h” value in the data set on K3a,eRh2 (setting [3]) is recorded as 76%. The “krel, relative modification rate” value in the data set on K3a,eRh2 was found to be 130.
Turning to `N[C@@H](Cc1c[nH]cn1)C(=O)O` [His], the “% conv. at 24 h” value in the data set on K3a,eRh2 (setting [2]) is recorded as 17^g %. Further, in the data set with K3a,eRh2, the “krel, relative modification rate” value was determined as 20 and the “modification … (in words)” value is “modest conversion”.
Turning to `CC[C@H](C)[C@H](NC(=O)[C@H](CCC(N)=O)NC(=O)[C@H](CCC(N)=O)NC(=O)[C@H](CCCNC(=N)N)NC(=O)[C@H](CC(C)C)NC(=O)[C@H](CO)NC(=O)[C@H](CC(N)=O)NC(=O)[C@H](C)NC(=O)[C@@H](NC(=O)[C@H](CO)NC(=O)[C@H](C)NC(=O)[C@H](CCC(=O)O)NC(=O)[C@H](CO)NC(=O)[C@H](CO)NC(=O)[C@@H](NC(=O)[C@H](CCC(=O)O)NC(=O)[C@H](C)NC(=O)[C@H](CCCCN)NC(=O)[C@H](CC(C)C)NC(=O)[C@@H](NC(=O)[C@H](CCCCN)NC(=O)[C@@H](NC(=O)[C@H](CCCNC(=N)N)NC(=O)[C@H](CCC(N)=O)NC(=O)[C@H](CCC(N)=O)NC(=O)[C@H](CC(C)C)NC(=O)[C@H](CCC(N)=O)NC(=O)[C@H](C)NC(=O)[C@H](C)NC(C)=O)C(C)C)[C@@H](C)O)[C@@H](C)CC)[C@@H](C)O)C(=O)N[C@@H](C)C(=O)N[C@@H](CCC(N)=O)C(=O)N[C@@H](CC(C)C)C(N)=O` [Jun(Rh2)] (Ac-AAQLQQRVKTLKAEISSEASTANSLRQQIAQL-NH2; N-terminus and C-terminus assumed), in the data set “Solubility on isolation”, the solubility result is reported as “poor solubility”. Moreover, the c-Fos residue modified entry at bZip domain of c-Fos is on record as “Gln19”.
Turning to `NCCCC[C@H](N)C(=O)O` [Lys], the “% conv. at 24 h” value in the data set on K3a,eRh2 (setting [2]) is 8^g %. In the data set with K3a,eRh2, the “krel, relative modification rate” value worked out at 20 and the “modification … (in words)” value is listed as “modest conversion”.
`C[C@@H](O)[C@H](N)C(=O)O` [Thr]: in the data set with K3a,eRh2, the “modification … (in words)” value is recorded as “not observed”.
Take Ac-KAEAAAEAK-NH2 [sEE4]: in data set [1], the [θ]220, residual molar ellipticity was -400 deg cm^2 dmol-res^-1; the “fH, helicity content” value is 9; the “Rel. Hel %, relative helicity” value is 13%; the “fH (TFE), helicity content” value was 8.
Take Ac-YGKAAAADAAADKAAAAK-NH2 [DD4]: in data set [1], the [θ]220, residual molar ellipticity was -5700 deg cm^2 dmol-res^-1; the “effect of dirhodium binding on helicity (in words)” value (from here on “effect of dirhodium binding”) is “increased helicity”; the “fH, helicity content” value is 22; the “Rel. Hel %, relative helicity” value is listed as 41%. In addition, in data set [1], the “fH (TFE), helicity content” value was 25.
In the case of Ac-YGKAAAADAADAKAAAAK-NH2 [DD3], in data set [1], the [θ]220, residual molar ellipticity is -5300 deg cm^2 dmol-res^-1; the “effect of dirhodium binding” value was “completely disrupt helicity”; the “fH, helicity content” value is on record as 21; the “Rel. Hel %, relative helicity” value is listed as 39%. The “fH (TFE), helicity content” value in data set [1] is 24.
Regarding Ac-YGKAAAADAAEAKAAAAK-NH2 [DE3], in data set [1], the [θ]220, residual molar ellipticity was -8000 deg cm^2 dmol-res^-1; the “effect of dirhodium binding” value was “completely disrupt helicity”; the “fH, helicity content” value was 29; the “Rel. Hel %, relative helicity” value is listed as 52%. The “fH (TFE), helicity content” value in data set [1] was 32.
Turning to Ac-YGKAAAADAGADKAAAAK-NH2 [DD4G], in data set [1], the [θ]220, residual molar ellipticity is -1100 deg cm^2 dmol-res^-1; the “fH, helicity content” value is 9; the “Rel. Hel %, relative helicity” value is recorded as 17%; the “fH (TFE), helicity content” value was 11.
As for Ac-YGKAAAAEAAAEKAAAAK-NH2 [EE4], in data set [1], the [θ]220, residual molar ellipticity is -12300 deg cm^2 dmol-res^-1; the “effect of dirhodium binding” value was “increased helicity”; the “fH, helicity content” value is 41; the “Rel. Hel %, relative helicity” value is 75%. In addition, the “fH (TFE), helicity content” value in data set [1] was 46.
On the same counts, the results for Ac-YGKAAAAEAADAKAAAAK-NH2 [ED3] are -11400 deg cm^2 dmol-res^-1, “completely disrupt helicity”, 38, 70% and 43.
For Ac-YGKAAAAEAAEAKAAAAK-NH2 [EE3], in data set [1], the [θ]220, residual molar ellipticity was -11500 deg cm^2 dmol-res^-1; the “effect of dirhodium binding” value is “increased helical”; the “fH, helicity content” value is 39; the “Rel. Hel %, relative helicity” value is 70%. Besides, the “fH (TFE), helicity content” value in data set [1] is on record as 44.
Take Ac-YGKAAAAEAGADKAAAAK-NH2 [ED4G]: in data set [1], the [θ]220, residual molar ellipticity was -1100 deg cm^2 dmol-res^-1; the “fH, helicity content” value is given as 9; the “Rel. Hel %, relative helicity” value was 17%; the “fH (TFE), helicity content” value is on record as 10.
Turning to Ac-YGKAAAAEAGAEKAAAAK-NH2 [EE4G], in data set [1], the [θ]220, residual molar ellipticity was -1900 deg cm^2 dmol-res^-1; the “fH, helicity content” value is recorded as 12; the “Rel. Hel %, relative helicity” value is 21%; the “fH (TFE), helicity content” value is 13.
Ac-YGKAAAAEAGEAKAAAAK-NH2 [EE3G]: in data set [1], the [θ]220, residual molar ellipticity was -2500 deg cm^2 dmol-res^-1; the “effect of dirhodium binding” value was “becomes helical”; the “fH, helicity content” value is given as 13; the “Rel. Hel %, relative helicity” value is given as 24%. In data set [1], the “fH (TFE), helicity content” value was 15.
“Max(Rh2): dirhodium metallopeptide based on the leucine-zipper Max (SEQ ID NO: 16) (ARRKNFTFQQNINNLKRQEALLEQQVRAL; also: dirhodium metal complex)”: the TM in the data set with Fos was 20 °C. Further, the “conversion of c-Fos” value in the data set with bZip domain of c-Fos (4° C.) is 72%; with bZip domain of c-Fos (−15° C.), 83%. Further, the c-Fos residue modified entry with bZip domain of c-Fos is “both Glu14 and Glu21”.
